Data from US20210130436A1.
“And” between values parts separate entries of the source, which are not always exact repeats. Equal entries are not always repeated.

Key:
human CTLA-4 (human) [1] = target: human CTLA-4 (human) (UniProt P16410); experiment: flow cytometry, CHO cells stably expressing CTLA4
CD96 = target: T1, CD96 (UniProt P40200); experiment: flow cytometry on cells expressing the target, 20 nM Fc fusion
T1 sequence (looked up): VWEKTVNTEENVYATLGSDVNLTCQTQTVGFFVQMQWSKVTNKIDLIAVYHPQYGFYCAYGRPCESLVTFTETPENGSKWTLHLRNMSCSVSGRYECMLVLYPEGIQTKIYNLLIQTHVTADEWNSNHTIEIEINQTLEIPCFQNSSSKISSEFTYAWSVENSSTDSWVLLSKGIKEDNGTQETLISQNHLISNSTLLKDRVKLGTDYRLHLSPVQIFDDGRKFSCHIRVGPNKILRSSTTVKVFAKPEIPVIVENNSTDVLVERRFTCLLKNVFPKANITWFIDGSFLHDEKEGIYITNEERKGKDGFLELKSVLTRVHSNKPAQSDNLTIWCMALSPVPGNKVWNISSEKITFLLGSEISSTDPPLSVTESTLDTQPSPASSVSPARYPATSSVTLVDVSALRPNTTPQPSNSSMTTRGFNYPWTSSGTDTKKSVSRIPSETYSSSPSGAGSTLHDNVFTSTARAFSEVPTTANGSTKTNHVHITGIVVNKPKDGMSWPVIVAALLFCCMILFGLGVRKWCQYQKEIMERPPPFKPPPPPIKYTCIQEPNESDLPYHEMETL

CD226 = CD226 (UniProt Q15762); experiment: flow cytometry, protein at 25 nM on cells expressing CD226
CD112R [2] = target: CD112R (UniProt Q6DKI7); experiment: flow cytometry, protein at 25 nM on cells expressing CD112R
Target sequence in this assay (Q6DKI7 41-326 limits assumed, form in doubt): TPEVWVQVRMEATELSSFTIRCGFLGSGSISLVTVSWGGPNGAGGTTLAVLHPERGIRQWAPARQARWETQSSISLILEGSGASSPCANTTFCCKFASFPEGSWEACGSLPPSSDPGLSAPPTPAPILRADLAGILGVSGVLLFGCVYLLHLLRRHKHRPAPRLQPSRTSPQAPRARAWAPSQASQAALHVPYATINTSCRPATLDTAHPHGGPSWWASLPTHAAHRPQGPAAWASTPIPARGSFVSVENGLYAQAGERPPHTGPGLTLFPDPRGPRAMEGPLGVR

CD28 (human) = CD28 (human) (UniProt P10747); experiment: flow cytometry, Jurkat/IL2 reporter cells (endogenous CD28), 33.3 nM, PE anti-human Fc
[3] = target: PD-L1 expressed on CHO/OKT3/PD-L1 artificial antigen presenting cells (human) (UniProt Q9NZQ7); experiment: cell-based or functional assay
[4] = target: CD80 expressed on cells (human) (UniProt P33681); experiment: flow cytometry; 20 nM protein on cells expressing CD80
[5] = target: PD-1 expressed on cells (Homo sapiens (Human)) (UniProt Q15116); experiment: flow cytometry; 20 nM protein on cells expressing PD-1
[6] = target: human CD28, full-length, expressed on transfected HEK293 (Expi293F) cells (human) (UniProt P10747); experiment: flow cytometry, Fc control on HEK293 cells transfected with full-length human CD28
[7] = target: human CTLA4, full-length, expressed on transfected HEK293 (Expi293F) cells (human) (UniProt P16410); experiment: flow cytometry, Fc control on HEK293 cells transfected with full-length human CTLA4
[8] = target: human PD-L1, full-length, expressed on transfected HEK293 (Expi293F) cells (human) (UniProt Q9NZQ7); experiment: flow cytometry, Fc control on HEK293 cells transfected with full-length human PD-L1
[9] = target: PD-1 (Homo sapiens (Human)) (UniProt Q15116); experiment: flow cytometry on Jurkat/PD-1 cells, 50 nM
PD-L1 (human) [10] = target: PD-L1 (human) (UniProt Q9NZQ7); experiment: cell-based or functional assay
PD-L1 (human) [11] = target: PD-L1 (human) (UniProt Q9NZQ7); experiment: flow cytometry, CHO cells stably expressing PD-L1
PD-L1 (human) [12] = target: PD-L1 (human) (UniProt Q9NZQ7); experiment: flow cytometry, CHO cells stably expressing huPD-L1, 33.3 nM, PE anti-human Fc
TIGIT [13] = target: T2, TIGIT (UniProt Q495A1); experiment: flow cytometry on cells expressing TIGIT, Fc fusion at 100 nM
T2 sequence (looked up): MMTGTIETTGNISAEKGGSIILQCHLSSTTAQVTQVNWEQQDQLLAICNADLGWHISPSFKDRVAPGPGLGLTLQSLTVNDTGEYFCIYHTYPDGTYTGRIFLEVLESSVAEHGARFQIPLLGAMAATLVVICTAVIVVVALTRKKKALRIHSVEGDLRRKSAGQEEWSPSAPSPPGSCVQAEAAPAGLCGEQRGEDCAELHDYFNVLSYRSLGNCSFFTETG

TIGIT [14] = target: T2, TIGIT; experiment: flow cytometry, MFI ratio to wildtype CD155 ECD-Fc, TIGIT cells
human CTLA-4 (human) [15] = target: human CTLA-4 (human) (UniProt P16410); experiment: flow cytometry, CHO cells stably expressing huCTLA4, 33.3 nM, PE anti-human Fc
[16] = target: human CD28, endogenous on Jurkat/IL2 reporter cells (human) (UniProt P10747); experiment: flow cytometry, Jurkat/IL2 reporter cells (endogenous CD28), PE anti-human Fc
[17] = target: CD28, endogenously expressed on Jurkat/IL2 reporter cells (human) (UniProt P10747); experiment: flow cytometry on Jurkat/IL2 reporter cells (endogenous CD28); PE anti-human Fc
[18] = target: human CTLA4 (full-length, expressed on CHO cells) (human) (UniProt P16410); experiment: flow cytometry, CHO cells expressing huCTLA4, PE anti-human Fc
[19] = target: CD28, endogenously expressed on Jurkat/IL2 reporter cells (human) (UniProt P10747); experiment: flow cytometry, Jurkat/IL2 reporter cells (endogenous CD28), PE anti-human Fc
[20] = target: human CTLA4 (huCTLA4), full-length, stably expressed on CHO cells (human) (UniProt P16410); experiment: flow cytometry, CHO cells expressing huCTLA4
[21] = target: CD28, endogenously expressed on Jurkat/IL2 reporter cells (human) (UniProt P10747); experiment: flow cytometry, Jurkat/IL2 reporter cells (endogenous CD28)
[22] = target: human CTLA4, full-length, expressed on transfected HEK293 (Expi293F) cells (human) (UniProt P16410); experiment: flow cytometry, Fc fusion on HEK293 cells transfected with full-length human CTLA4
[23] = target: human CTLA-4, full-length, on transduced CHO cells (human) (UniProt P16410); experiment: flow cytometry, CHO cells expressing huCTLA4, PE anti-human Fc
[24] = target: human CD28, full length, expressed on transfected HEK293 cells (human) (UniProt P10747); experiment: flow cytometry, HEK293 cells transfected with human CD28
[25] = target: human PD-L1, full length, expressed on transfected HEK293 cells (human) (UniProt Q9NZQ7); experiment: flow cytometry, HEK293 cells transfected with human PD-L1
[26] = target: human PD-L1 on CHO cells (human) (UniProt Q9NZQ7); experiment: cell-based or functional assay
CD112R [27] = target: CD112R (UniProt Q6DKI7); experiment: flow cytometry on CD112R-expressing cells
Target sequence in this assay (Q6DKI7 41-326 limits assumed): as the sequence (Q6DKI7 41-326 limits assumed, form in doubt) above

[28] = target: PD-1 expressed on cells (Homo sapiens (Human)) (UniProt Q15116); experiment: flow cytometry; 20 nM Fc fusion on cells expressing PD-1
PD-L1 (human) [29] = target: PD-L1 (human) (UniProt Q9NZQ7); experiment: flow cytometry on CHO cells stably expressing PD-L1

human CTLA4 (full-length, expressed on CHO cells) (human), sequence (P16410 36-223): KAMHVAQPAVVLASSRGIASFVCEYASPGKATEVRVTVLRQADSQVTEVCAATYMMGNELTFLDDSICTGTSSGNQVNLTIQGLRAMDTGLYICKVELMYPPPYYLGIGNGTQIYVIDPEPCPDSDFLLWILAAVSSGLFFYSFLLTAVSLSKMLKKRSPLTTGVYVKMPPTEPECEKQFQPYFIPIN
human CTLA4, full-length, expressed on transfected HEK293 (Expi293F) cells (human), sequence (P16410 36-223): as above
human CTLA-4 (human), sequence (P16410 36-223): as above
PD-1 expressed on cells (Homo sapiens (Human)), sequence (Q15116 21-288): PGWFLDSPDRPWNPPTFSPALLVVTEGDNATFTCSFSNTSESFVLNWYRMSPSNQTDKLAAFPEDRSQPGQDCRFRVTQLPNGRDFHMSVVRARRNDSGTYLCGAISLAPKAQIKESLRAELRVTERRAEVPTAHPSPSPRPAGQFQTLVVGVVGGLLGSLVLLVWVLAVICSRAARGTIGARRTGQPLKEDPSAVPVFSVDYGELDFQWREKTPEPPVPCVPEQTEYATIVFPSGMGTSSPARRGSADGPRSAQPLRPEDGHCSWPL
PD-1 (Homo sapiens (Human)), sequence (Q15116 21-288): as above
human CTLA-4, full-length, on transduced CHO cells (human), sequence (P16410 36-223): as the sequence (P16410 36-223) above
human CTLA4 (huCTLA4), full-length, stably expressed on CHO cells (human), sequence (P16410 36-223): as above
CD226, sequence (Q15762 19-336): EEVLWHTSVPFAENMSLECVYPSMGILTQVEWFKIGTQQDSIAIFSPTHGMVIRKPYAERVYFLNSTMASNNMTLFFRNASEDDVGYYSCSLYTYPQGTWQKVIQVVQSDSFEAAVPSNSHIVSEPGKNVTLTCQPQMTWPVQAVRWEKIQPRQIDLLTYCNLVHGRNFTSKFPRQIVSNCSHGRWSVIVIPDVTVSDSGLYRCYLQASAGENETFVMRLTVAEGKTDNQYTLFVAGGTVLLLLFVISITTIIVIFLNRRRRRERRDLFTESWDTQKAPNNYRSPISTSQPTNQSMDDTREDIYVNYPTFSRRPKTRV

In the case of “CD80 IgV-Fc T13R/Q33R/E35D/M38I/M47L/V68M (from UniProt P33681 35-141) (Fc fusion)”, the MFI at 33.3 nM (human CTLA-4 (human) [1]) is reported as 193 MFI.

For “CD112 A112V IgV-Fc (from UniProt Q92692 32-158) (Fc fusion)”, the MFI at 20 nM (CD96) was 1210 MFI and 1180 MFI.

Work on “CD112-IgV (from UniProt Q92692 32-158) (Fc fusion)” yielded an MFI at 25 nM (CD226) of 824 MFI and an MFI at 25 nM (CD112R [2]) of 17800 MFI.

Work on “E35D/D46E/M47L/V68M/L85Q/F92L CD80 IgV-Fc (from UniProt P33681 35-141) (Fc fusion)” yielded an MFI at 33.3 nM (CD28 (human)) of 15 MFI.

“Fc1.1 Control (from UniProt P0DOX5 218-448)” showed a Relative Luciferase Units (RLU), Jurkat/IL2 + CHO/OKT3/PD-L1 reporter assay, CD80 Conc 5.0 nM [3] of 97 RLU.

In the case of Fc Control, the MFI at 20 nM [4] is reported as 132 MFI and the MFI at 20 nM [5] is reported as 59 MFI.

Fc only was tested, and the MFI at 66.6 nM [6] was 2590 MFI, the MFI at 66.6 nM [7] was 5960 MFI and the MFI at 22.2 nM [8] was 4740 MFI.

Work on “PD-L1 A33D/S75P IgV-Fc (first entry) (from UniProt Q9NZQ7 19-132) (Fc fusion)” yielded a Fold increase over wildtype PD-L1 IgV-Fc [9] of 0.1 fold and an MFI at 50 nM [9] of 306.

Work on “WT CD80 ECD-Fc (from UniProt P33681 35-242) (Fc fusion)” yielded a Jurkat/IL2 + CHO/OKT3/PD-L1 reporter assay, RLU at CD80 Conc 5.0 nM (PD-L1 (human) [10]) of 521 RLU, an MFI at 33.3 nM (PD-L1 (human) [11]) of 52 MFI and an MFI at 33.3 nM (PD-L1 (human) [12]) of 68 MFI.

For “Wildtype (CD155 entry without mutations among the variant rows of Table 20B) (from UniProt P15151 21-142) (Fc fusion)”, the MFI at 100 nM (TIGIT [13]) was 1960 MFI and 2180 MFI and the Fold ↑ to WT ECD (TIGIT [14]) was 0 fold.

For deltaE10-A98 CD80 IgV-Fc (Fc fusion), the MFI at 33.3 nM (human CTLA-4 (human) [15]) was 125 MFI, the MFI at 33.3 nM (PD-L1 (human) [12]) was 45 MFI and the MFI at 33.3 nM (CD28 (human)) was 15 MFI.

“variant CD80 IgV-Fc E35D/D46E/M47V/N63D/L85Q (from UniProt P33681 35-141) (Fc fusion)” gave an MFI at 33.3 nM [16] of 1330 MFI.

With “variant CD80 IgV-Fc E35D/K37E/M47V/N48D/L85Q/D90N (from UniProt P33681 35-141) (Fc fusion)” the MFI at 33.3 nM [16] was 1590 MFI.

In the case of “variant CD80 IgV-Fc E35D/M42V/M47V/E52D/L85Q (from UniProt P33681 35-141) (Fc fusion)”, the MFI at 33.3 nM [17] is reported as 1290 MFI.

For “variant CD80 IgV-Fc E35D/M47I/K54R/L85E (from UniProt P33681 35-141) (Fc fusion)”, the MFI at 33.3 nM [18] was 8660 MFI.

Substance “variant CD80 IgV-Fc E35D/M47L/A71G/L85Q (from UniProt P33681 35-141) (Fc fusion)” has an MFI at 33.3 nM [16] of 1440 MFI.

Work on “variant CD80 IgV-Fc E35D/Y53H/A71G/D90G/L97R (from UniProt P33681 35-141) (Fc fusion)” yielded an MFI at 33.3 nM [17] of 1550 MFI.

Substance “variant CD80 IgV-Fc H18L/V22A/E35D/M47L/N48T/L85Q (from UniProt P33681 35-141) (Fc fusion)” has an MFI at 33.3 nM [19] of 434 MFI.

“variant CD80 IgV-Fc H18Y/E35D/M38I/M47L/V68M/L85M (from UniProt P33681 35-141) (Fc fusion)” was tested, and the MFI at 33.3 nM [20] was 139 MFI and the MFI at 33.3 nM [21] was 16.7 MFI.

In the case of “variant CD80 IgV-Fc K36R/G78A (from UniProt P33681 35-141) (Fc fusion)”, the MFI at 66.6 nM [22] is reported as 11900 MFI.

“variant CD80 IgV-Fc Q33K/E35D/D46V/L85Q (from UniProt P33681 35-141) (Fc fusion)” gave an MFI at 33.3 nM [18] of 8510 MFI.

For “variant CD80 IgV-Fc Q33L/E35D/M43I/Y53F/T62S/L85Q (from UniProt P33681 35-141) (Fc fusion)”, the MFI at 33.3 nM [17] was 1024 MFI.

“variant CD80 IgV-Fc Q33L/E35D/M47I (from UniProt P33681 35-141) (Fc fusion)” was tested, and the MFI at 33.3 nM [18] was 15900 MFI.

“variant CD80 IgV-Fc Q33L/E35D/T41S/M43I (from UniProt P33681 35-141) (Fc fusion)” showed an MFI at 33.3 nM [19] of 433 MFI.

“variant CD80 IgV-Fc Q33L/E35D/T41S/M47V (from UniProt P33681 35-141) (Fc fusion)” gave an MFI at 33.3 nM [18] of 14500 MFI.

“variant CD80 IgV-Fc R29H/E35D/M43V/M47I/I49V (from UniProt P33681 35-141) (Fc fusion)” gave an MFI at 33.3 nM [23] of 4690 MFI.

For “variant CD80 IgV-Fc V22L/E35D/M43L/A71G/D76H (from UniProt P33681 35-141) (Fc fusion)”, the MFI at 66.6 nM [24] was 1500 MFI and the MFI at 22.2 nM [25] was 1850 MFI.

“variant CD80 IgV-Fc deltaE10-A98 (Fc fusion)” gave a Fold Increase over WT CD80-IgV-Fc [26] of 0.3 fold and a Jurkat/IL2 + CHO/OKT3/PD-L1 Reporter Assay: Relative Luciferase Units (RLU), CD80-Fc Conc 5.0 nM [26] of 137 RLU.

Work on “variant CD112 IgV-Fc R12W/A46T/K66M/Q79R/N106I/T113A/S118F (from UniProt Q92692 32-158) (Fc fusion)” yielded an MFI at 100 nM (CD112R [27]) of 1660 MFI.

“variant PD-L1 G15A/I36T/V129D/R195G Fc fusion (from UniProt Q9NZQ7 19-238)” gave an MFI at 20 nM [28] of 125 MFI.

“wild-type CD80 ECD-Fc (inert), Example 15 (from UniProt P33681 35-242) (Fc fusion)” gave an RLU, Jurkat/IL2 + CHO/OKT3/PD-L1 Reporter Assay, CD80 Conc 5.0 nM (PD-L1 (human) [10]) of 159 RLU and an MFI at 33.3 nM (PD-L1 (human) [29]) of 161 MFI.
